Measured values published in paper PMC4748816 (RNA, 2016).

Key:
[1] = target: His-tagged GFP-dmDcr1 (Drosophila) (UniProt Q9VCU9); assay: fluorescence cross-correlation spectroscopy
[2] = target: Alexa Fluor 647-labeled Loqs-3 (Loqs-3^AF647), single-labeled dimer fraction (Drosophila) (UniProt Q9VJY9); assay: SEC
[3] = target: GST-Loqs-3 (minimal linker plus dsRBD3) (Drosophila) (UniProt Q9VJY9); assay: pull-down
His-tagged GFP-dmDcr1 = His-tagged GFP-dmDcr1 (Drosophila, UniProt Q9VCU9 1-2249); assay: fluorescence cross-correlation spectroscopy
SEC = target: the molecule itself; assay: SEC

His-tagged GFP-dmDcr1, sequence (Q9VCU9 whole entry): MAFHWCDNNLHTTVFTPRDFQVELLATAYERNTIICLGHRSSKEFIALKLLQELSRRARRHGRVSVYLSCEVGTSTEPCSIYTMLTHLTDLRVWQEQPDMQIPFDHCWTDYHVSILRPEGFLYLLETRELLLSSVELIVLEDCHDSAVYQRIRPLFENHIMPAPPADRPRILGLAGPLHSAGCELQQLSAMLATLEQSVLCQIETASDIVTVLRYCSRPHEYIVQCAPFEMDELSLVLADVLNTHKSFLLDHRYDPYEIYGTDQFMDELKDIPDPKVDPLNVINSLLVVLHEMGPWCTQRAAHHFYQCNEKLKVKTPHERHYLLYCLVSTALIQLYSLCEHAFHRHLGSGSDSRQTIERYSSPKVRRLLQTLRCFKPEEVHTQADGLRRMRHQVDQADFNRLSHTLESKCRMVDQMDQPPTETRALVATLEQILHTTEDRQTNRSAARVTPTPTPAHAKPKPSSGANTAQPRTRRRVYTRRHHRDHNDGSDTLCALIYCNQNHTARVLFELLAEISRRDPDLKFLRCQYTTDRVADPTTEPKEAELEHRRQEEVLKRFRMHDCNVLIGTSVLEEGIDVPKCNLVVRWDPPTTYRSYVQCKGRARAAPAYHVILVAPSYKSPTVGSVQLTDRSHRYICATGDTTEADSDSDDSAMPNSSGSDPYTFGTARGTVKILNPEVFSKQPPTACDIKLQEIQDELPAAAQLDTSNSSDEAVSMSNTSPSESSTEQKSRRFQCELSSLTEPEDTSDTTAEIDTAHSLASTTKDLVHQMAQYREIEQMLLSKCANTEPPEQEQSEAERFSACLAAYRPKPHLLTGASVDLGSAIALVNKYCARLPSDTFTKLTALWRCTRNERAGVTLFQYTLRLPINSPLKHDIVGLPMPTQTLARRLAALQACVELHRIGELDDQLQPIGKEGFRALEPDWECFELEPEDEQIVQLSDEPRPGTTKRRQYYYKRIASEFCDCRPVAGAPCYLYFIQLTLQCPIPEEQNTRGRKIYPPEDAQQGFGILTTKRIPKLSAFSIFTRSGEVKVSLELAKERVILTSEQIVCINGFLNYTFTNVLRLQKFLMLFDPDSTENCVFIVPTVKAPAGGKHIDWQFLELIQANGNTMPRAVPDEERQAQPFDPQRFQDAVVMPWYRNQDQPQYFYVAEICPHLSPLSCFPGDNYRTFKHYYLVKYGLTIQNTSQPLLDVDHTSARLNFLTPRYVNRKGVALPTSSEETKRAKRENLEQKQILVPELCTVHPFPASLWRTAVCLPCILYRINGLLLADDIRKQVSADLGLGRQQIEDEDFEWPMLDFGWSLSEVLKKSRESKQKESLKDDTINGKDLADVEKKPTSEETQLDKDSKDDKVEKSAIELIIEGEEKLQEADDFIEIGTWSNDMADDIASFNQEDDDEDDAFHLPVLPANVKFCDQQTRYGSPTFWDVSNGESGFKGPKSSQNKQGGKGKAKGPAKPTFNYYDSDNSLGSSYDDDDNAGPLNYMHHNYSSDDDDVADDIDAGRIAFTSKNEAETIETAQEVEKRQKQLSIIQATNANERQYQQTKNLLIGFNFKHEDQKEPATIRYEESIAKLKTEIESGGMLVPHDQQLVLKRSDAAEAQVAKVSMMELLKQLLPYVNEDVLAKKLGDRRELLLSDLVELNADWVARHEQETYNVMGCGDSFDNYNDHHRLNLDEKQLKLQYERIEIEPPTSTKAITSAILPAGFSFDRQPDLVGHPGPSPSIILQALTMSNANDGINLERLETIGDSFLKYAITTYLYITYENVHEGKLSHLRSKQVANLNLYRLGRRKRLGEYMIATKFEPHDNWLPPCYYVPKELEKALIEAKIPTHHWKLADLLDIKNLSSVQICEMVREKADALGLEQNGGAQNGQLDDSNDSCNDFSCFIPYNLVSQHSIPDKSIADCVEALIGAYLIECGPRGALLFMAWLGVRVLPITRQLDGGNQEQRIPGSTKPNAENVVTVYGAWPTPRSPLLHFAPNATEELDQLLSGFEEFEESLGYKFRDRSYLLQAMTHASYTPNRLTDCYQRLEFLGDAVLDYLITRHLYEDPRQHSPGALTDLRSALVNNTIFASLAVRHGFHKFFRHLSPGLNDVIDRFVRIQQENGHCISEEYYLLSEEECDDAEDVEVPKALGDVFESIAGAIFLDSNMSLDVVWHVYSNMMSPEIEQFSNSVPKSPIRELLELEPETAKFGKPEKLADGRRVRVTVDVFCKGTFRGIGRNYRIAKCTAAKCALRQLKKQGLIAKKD
His-tagged GFP-dmDcr1 (Drosophila), sequence (Q9VCU9 whole entry): as above

IC50 (His-tagged GFP-dmDcr1) | Ki (His-tagged GFP-dmDcr1) | Molecule | also measured
– | – | Alexa Fluor 647-labeled dsRBD3 (dsRDB3^AF647) (from UniProt Q9VJY9 392-463) (domain or fragment) | Kd [1]: 192 nM
– | – | Alexa Fluor 647-labeled Loqs-3 (Loqs-3^AF647), single-labeled dimer fraction (from UniProt Q9VJY9 368-463) (domain or fragment) | stoichiometry N [2]: 2
– | – | His-tagged dmDcr1 (Drosophila Dicer1), Q9VCU9 1-2249 | fold binding against dsRBD3 alone [3]: 10 fold
104 nM | 43.6 nM | Loqs dsRBD3, unlabeled, purified (domain or fragment, Drosophila) IDYIKLLGEIATENQFEVTYVDIEEKTFSGQFQCLVQLSTLPVGVCHGSGPTAADAQRHAAQNALEYLKIMT | –
9.3 nM | 3.6 nM | Loqs-3, unlabeled, purified (domain or fragment, Drosophila, UniProt Q9VJY9 368-463, looked up) HKTLKNATGKKLLKLQKTCLKNNKIDYIKLLGEIATENQFEVTYVDIEEKTFSGQFQCLVQLSTLPVGVCHGSGPTAADAQRHAAQNALEYLKIMT | –
– | – | Loqs-3 K460E (size-exclusion chromatography) (domain or fragment, Drosophila, UniProt Q9VJY9 368-463, looked up) HKTLKNATGKKLLKLQKTCLKNNKIDYIKLLGEIATENQFEVTYVDIEEKTFSGQFQCLVQLSTLPVGVCHGSGPTAADAQRHAAQNALEYLEIMT | binding result (SEC): binds
